Target: the molecule itself
Test: SEC; native molecular weight of purified EnoCa (~92-96 kDa against a ~46 kDa subunit on SDS gel); gel filtration on Sephacryl S-300 (2.5 x 100 cm), 1 ml/min, is a step of the purification; the data are in Figures S1-S3

B1: enolase-1 from Chloroflexus aurantiacus (enzyme, Chloroflexus aurantiacus strain J.10.fl., UniProt A9WCM4 1-426, looked up)
chain: MSTLIEAIVAREVLDSRGNPTIEVDVRLESGDVGRAIVPSGASTGAHEALELRDGDKSRYNGKGVLKAVQAVNEDIAEALIGFDAADQIALDQELIALDGTPNKSKLGANAILGVSLAAAKAAAAAFGLPLYRYLGGVYAHVLPVPMMNIMNGGQHATNSTDFQEFMIMPVGAESFREGLRWGAEIYHMLKKVIHDRGFSTTVGDEGGFAPSLPTNDAPLQLIMEAIEKAGYRPGEQIVIALDPATTEIFEDGKYHLKREGRSLSSAEMVDYWVDLVNRYPIISLEDGLAEDDWEGWALLRAKLGDRVQLVGDDFLVTNVQRLQRAIEAKAANSILIKLNQIGSLTETLSAIQLAQRSGWTAVVSHRSGESEDVTIADLVVATNAGQIKTGAPARTDRIAKYNQLLRIEEELGSAARYAGRSAFKV
notes: enolase-1 (2-phospho-D-glycerate hydrolyase, EC 4.2.1.11) of Chloroflexus aurantiacus strain J.10.fl., endogenous protein; subunit ~46 kDa by SDS-PAGE; Native protein purified from the organism, no tags; also called EnoCa; EnoCa-1
stoichiometry N: 2
